This is an account of results in the nanobody polyreactivity screen of Harvey et al. (2022).

The data set in a line: yeast display, Sf9 membrane polyspecificity reagent, FACS + sequencing; frameworks hold sequencing errors. The essentials:
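In a synthetic yeast display library (Saccharomyces cerevisiae BJ5465), nanobody expression was induced with galactose for 36–48 hours. FACS gates were set low and high (top ~1%) using anti-HA fluorescence for expression and streptavidin fluorescence for binding of the Sf9 membrane reagent. Each polyreactivity label is drawn from the gate of origin.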
Consider “QVQLVETGGGLVQAGGSLRLSCAASGRIFTYYAMGWYRQAPGKERELVAGISSRGTRTYYADSVKGRFTISRDNAKNTVYLQMNSLKPDDTAVYYCAAYPQFWYWDYNYWGQGTQVTVSS”, for which the “polyreactivity (PSR sort gate)” value is given as “high polyreactivity”. The value for “QVQLVESGGGLVQAGRSLRLSCAASGYTFYVYAMGWYRQAPGKERELVASISSGGITYYADSVKGRFTISRDNAKNTVYLQMNILKPEDTAVYYCAADWQWTYDYWGQGTQVTVSS” was “low polyreactivity”. The value for “QVKHVESVGGLVQAGGSLRLSCAASGITFVRNAMGWSRQAPGKETDLVAAISSGGGSTYYADSVKGRFTISRDNAKNTVYLQMNSLKPEDTAVYYCNAQGFIYYWLRYDYWGQGTQVTVSS” was “high polyreactivity”; that for “QVQLVESGGGLVQAGGSLRLSCSASGIIFRSYAMGWYRQAPGKERELVAAITGGGTTNYADSVKGRFTISRDNAKNTVYLQMNRLKPEDTAVYYCNAGLDWFWFNEMDYWGQGTQVTVSS” was “low polyreactivity”; that for “QVQLVESGGGLVQAGGSLRLSCAASGSIFYYYAMGCYTQAPGKERELVAAITSGGSTYYADSVNGRFTISRDNAKNSGYLQMNSLKPEDTAVYYCNNAFPYFDDYWGQGTQVTVSS” was “low polyreactivity”.

In the case of “QVQLVESGGGLVQAGGSLRLSCAASGRTFGKNAMGWYRQAPAKERELVAAISWGGGRTFYADSVKGRFTISRDNAKNTVYLQMNSLKPEDTAVYYCNAVQYPRRAKYDYWGQGTQVTVSS”, the “polyreactivity (PSR sort gate)” value is given as “low polyreactivity”. To “QVQLVESGGGLVQEGGSLRLICSASGSTFRANAMGWYRQAPGKERELVAAITSSGGSTYYADSVKGRFTISRDNAKNTVYLQMNSLKPEDTAVYYCAKENAPSRLTYGYWGQGTQVTVSS” belongs “low polyreactivity”; to “QVQLVDSGGGLVQAGGSLRLSCAASGFTFAYYALGWYRPAPGKEREFVAAITSGGRTNYADSVKGRFTISRDNAKNTVYLQMNSLKPEDTAVYYCAKYRRGGSRHYSVFNHDYWGQGTQVTVSS”, “high polyreactivity”; to “QVQRVESGGGLVQAGGSLRLSCAASGIFYWYGMGWYRQAPGKDRELVASITGGGRTYYADSVKGRFTISRDNAKNTVYLQMNSLKPEDTAVNYCATRYWGGLPRRWYDYWGQGTQVTVSS”, “high polyreactivity”. As to “QVQLVESGGGLVQAGGSLRLSCAGSGFISYYYAMGWYRQAPGKEREFVAAITSSGGSTRYADSVKGRFTISRDNAKNTVYLQMNSLKPEDTAVYYCNADYYWFFDFFDYDYWGQGTQVTVSS”, the “polyreactivity (PSR sort gate)” value was “low polyreactivity”. As for “QVQLVESGGGLVQAGASHRLSCAASGRIFGGYAMGSDRQAPGKERELVAAISSRGGSTYYADSVKGRFTISRDNAKNTVYLLMNSLKPEETAVYYCAADGRVKGWGQGTQVTVSS”, the “polyreactivity (PSR sort gate)” value is recorded as “high polyreactivity”. To “QVQLVESGGDLVQAGGSLRLSCAATGFTFDYYAMGWYRQAPGKEREFVAAISRSGGRTYYADSVKGRFTISRDNAKNTVYLQMNSLKQEDTAVYYCAAGFVGERFDYWGQGTQVTVSS” belongs “high polyreactivity”; to “QVQLVESGGGLVQAGGSLRLSCAASGITFTAYDMGWYRQAPWKEREFVAAISTIGGSTNYADSVKGRFTISRDNAKNTVYLQMNSLKPEDTAVYYCFAWVYQFGYWGQGTQVTVSS”, “low polyreactivity”; to “QVQLVDSGGGLVQAGGSLRLSCHASGRIVTSNAMGWYRQAPGKERELVAAISWSGGSTYYADSVKGRFTISRDNAKNTVYLQINSLKPEDTAVYYCAAYGTKWGRGFYITGYGYWGQGTQVTVSS”, “low polyreactivity”. To “QVQLVESGGGLVQAGGSLRLSCAASGSTFNAYDMGWYRQAPGKERELVAAISTSGDSTYFADSVKGRFTISRDNAKNTVYLQMNSLKPEDTAVYYCARDIYHYGYDYWGQGTQVTVSS” belongs “low polyreactivity”; to “QVQLGESGGGLLQAGGSLRLICAASGSIFSPYDMGWYRHAPGKERVLVAAITGSGASTYYADSVKGRFSISRDNAKNTVSLEMNSLKPEETAVYYCAAVSKYYTTWTSGYWGQGTQVTLSS”, “low polyreactivity”.
